Key:
[1] = target: T1, Recombinant mouse MMR (R&D systems) (mouse, UniProt Q61830 20-1388); experiment: SPR, BIAcore T100; mouse MMR on CM5 chip, sdAb as analyte
T1 construct: Antigen of the PE-ELISA and the SPR; also called mMMR; recombinant mMMR
T1 sequence: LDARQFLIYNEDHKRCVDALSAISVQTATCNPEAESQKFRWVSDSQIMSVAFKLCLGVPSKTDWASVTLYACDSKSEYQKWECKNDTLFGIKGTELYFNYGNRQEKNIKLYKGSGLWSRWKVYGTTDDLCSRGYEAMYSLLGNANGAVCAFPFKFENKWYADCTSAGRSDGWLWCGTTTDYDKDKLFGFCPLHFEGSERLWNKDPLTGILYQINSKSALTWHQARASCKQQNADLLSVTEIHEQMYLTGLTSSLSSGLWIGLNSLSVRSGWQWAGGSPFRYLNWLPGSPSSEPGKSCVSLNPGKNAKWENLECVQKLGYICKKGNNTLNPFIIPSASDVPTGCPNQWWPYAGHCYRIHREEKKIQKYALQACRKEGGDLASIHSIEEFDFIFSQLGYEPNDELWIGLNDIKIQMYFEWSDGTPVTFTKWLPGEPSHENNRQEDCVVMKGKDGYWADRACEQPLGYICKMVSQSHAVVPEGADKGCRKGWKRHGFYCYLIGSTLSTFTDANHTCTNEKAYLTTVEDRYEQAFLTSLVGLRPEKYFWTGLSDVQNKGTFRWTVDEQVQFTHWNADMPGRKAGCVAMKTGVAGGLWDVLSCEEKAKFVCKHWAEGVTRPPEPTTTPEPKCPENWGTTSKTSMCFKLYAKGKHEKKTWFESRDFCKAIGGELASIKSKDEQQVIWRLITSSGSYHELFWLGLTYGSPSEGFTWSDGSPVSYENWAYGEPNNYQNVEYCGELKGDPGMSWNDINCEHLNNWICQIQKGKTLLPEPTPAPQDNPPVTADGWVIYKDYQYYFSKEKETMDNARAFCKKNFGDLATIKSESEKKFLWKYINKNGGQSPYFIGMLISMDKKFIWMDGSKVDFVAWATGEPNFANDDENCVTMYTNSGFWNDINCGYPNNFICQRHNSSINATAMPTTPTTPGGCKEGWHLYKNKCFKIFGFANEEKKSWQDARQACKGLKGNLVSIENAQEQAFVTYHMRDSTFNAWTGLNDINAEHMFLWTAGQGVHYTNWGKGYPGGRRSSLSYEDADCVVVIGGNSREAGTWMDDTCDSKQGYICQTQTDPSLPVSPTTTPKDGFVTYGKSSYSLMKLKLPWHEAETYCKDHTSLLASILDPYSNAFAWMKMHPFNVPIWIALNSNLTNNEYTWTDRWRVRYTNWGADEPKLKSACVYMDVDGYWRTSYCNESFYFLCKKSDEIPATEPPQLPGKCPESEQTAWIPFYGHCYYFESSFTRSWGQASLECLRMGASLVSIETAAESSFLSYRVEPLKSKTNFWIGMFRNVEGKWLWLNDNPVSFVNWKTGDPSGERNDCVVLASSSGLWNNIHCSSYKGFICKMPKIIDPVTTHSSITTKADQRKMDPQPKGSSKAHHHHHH
Description: (§1) Affinity analysis was performed using a BIAcore™ T100 (GE Healthcare) with HEPES-buffered saline running buffer (10 mM HEPES with 0.15 M NaCl, 3.4 mM EDTA and 0.005% surfactant P20 at pH 7.4). MRR was immobilized on a CM5 chip in acetate buffer 50 mM (pH 5.0), resulting in 2100 RU MMR coated on the chip. A second channel on the same chip was activated/deactivated in a similar way and served as a negative control. The MMR sdAbs were used as analytes in eleven different concentrations, ranging from 1 to 2000 nM, at a flow rate of […]. Glycine-HCl 50 mM (pH 2.0) was used for elution. The kinetic and equilibrium parameters (kd, ka and KD) values were calculated from the combined sensogram of all concentrations using BIAcore™ T100 evaluation software 2.02 (GE Healthcare).
(§2) The binding characteristics and affinity of selected Nbs towards the recombinant hMMR and recombinant mMMR antigen was examined in further detail using surface plasmon resonance. A combined sensogram was recorded for each Nb (example for NbhmMMRm3.49 in FIG. 5) and the kinetic and equilibrium parameters (kd, ka and KD) values were calculated (Table 4 and Table 5). Most but not all results on binding to mouse or human rMMR obtained via this SPR analysis are in agreement with the results obtained by PE-ELISA.

[2] = target: T2, Recombinant human MMR (R&D systems) (human, UniProt P22897 19-1383); experiment: SPR, BIAcore T100; human MMR on CM5 chip, sdAb as analyte
T2 construct: Antigen of the PE-ELISA and the SPR; also called hMMR; recombinant hMMR
T2 sequence: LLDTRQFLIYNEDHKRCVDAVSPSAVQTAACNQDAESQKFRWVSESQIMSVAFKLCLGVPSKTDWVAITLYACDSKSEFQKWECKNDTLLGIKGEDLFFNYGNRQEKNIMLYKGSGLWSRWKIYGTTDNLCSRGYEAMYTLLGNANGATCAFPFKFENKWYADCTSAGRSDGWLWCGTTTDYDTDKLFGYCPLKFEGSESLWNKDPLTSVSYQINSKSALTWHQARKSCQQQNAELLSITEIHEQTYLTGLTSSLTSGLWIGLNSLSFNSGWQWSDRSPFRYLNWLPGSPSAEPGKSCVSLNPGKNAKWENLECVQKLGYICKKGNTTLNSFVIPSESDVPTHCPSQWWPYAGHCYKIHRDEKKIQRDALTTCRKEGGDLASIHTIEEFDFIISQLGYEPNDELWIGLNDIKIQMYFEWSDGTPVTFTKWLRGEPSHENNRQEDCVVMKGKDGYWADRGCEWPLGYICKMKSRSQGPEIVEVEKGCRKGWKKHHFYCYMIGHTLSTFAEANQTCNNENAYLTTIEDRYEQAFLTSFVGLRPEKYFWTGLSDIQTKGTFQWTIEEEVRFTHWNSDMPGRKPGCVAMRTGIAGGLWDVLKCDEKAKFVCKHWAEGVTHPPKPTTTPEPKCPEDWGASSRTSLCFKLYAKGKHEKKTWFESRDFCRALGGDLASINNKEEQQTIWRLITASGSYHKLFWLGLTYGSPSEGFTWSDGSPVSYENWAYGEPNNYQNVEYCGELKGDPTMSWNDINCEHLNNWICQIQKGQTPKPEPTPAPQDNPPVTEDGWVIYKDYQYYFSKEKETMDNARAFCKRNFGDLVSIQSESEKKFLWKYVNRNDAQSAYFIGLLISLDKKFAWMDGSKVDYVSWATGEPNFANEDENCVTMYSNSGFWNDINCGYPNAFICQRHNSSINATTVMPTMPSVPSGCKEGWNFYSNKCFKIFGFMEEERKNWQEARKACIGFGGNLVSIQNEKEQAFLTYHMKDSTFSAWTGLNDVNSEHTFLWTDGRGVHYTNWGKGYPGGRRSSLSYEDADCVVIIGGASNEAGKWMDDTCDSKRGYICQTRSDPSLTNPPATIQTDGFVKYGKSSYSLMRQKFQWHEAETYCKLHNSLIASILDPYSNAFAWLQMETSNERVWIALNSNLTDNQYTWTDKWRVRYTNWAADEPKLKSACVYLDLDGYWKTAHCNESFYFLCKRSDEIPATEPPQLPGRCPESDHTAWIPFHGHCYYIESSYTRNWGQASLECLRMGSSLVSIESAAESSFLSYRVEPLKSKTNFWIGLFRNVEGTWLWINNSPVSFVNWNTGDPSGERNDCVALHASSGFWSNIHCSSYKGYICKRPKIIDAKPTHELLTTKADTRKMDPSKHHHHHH
Description: as §1, §2

B1: NbhMMRm15.43 (VHH)
VHH: QVQLQESGGTLVQPGGSLRLSCAASGSTFSINNMGWYRQAPGKQRELVAGITGGNTHYADSVKGRFTISRDNAKNTMYLQMNGLKPEDTAVYYCNANWGAYWGQGTQVTVSS
notes: Produced from pMECS with C-terminal HA and 6xHis tag
Kd [1]: 44 nM
koff [1]: 0.0013 s⁻¹
kon [1]: 29000 M⁻¹ s⁻¹
Kd [2]: 270 nM
koff [2]: 0.0059 s⁻¹
kon [2]: 22000 M⁻¹ s⁻¹

B2: NbhmMMRm15.49 (VHH)
VHH: QVQLQESGGGLVQAGGSLRLSCAASGSTFSINNMGWYRQAPGKQRELVAGITGGNTHYADSVKGRFTISRDNAKNTMYLQMNSLKPEDTAVYYCNANWGAYWGQGTQVTVSS
notes: as for B1
Kd [1]: 44 nM
koff [1]: 0.0013 s⁻¹
kon [1]: 29000 M⁻¹ s⁻¹
Kd [2]: 290 nM
koff [2]: 0.0061 s⁻¹
kon [2]: 21000 M⁻¹ s⁻¹

B3: NbhmMMRm26.70 (VHH)
VHH: QVQLQESGGGLVQPGGSLRLSCTASGFPFSSAPMSWVRQAPGKELEWVSYIGYTGTITDYANSVKGRFTISRDNAKNRLYLQMNSLKPEDTAVYFCAQGYARLIADSDLVRGQGTQVTVSS
notes: as for B1
Kd [1]: 1.9 nM
koff [1]: 0.0013 s⁻¹
kon [1]: 690000 M⁻¹ s⁻¹
Kd [2]: 13 nM
koff [2]: 0.0073 s⁻¹
kon [2]: 580000 M⁻¹ s⁻¹

B4: NbhmMMRm24.31 (VHH)
VHH: QVQLQESGGGLVQPGGSLRLSCTATGFTLKNHHIGWLRQAPGKEREGVASINSSGGSTNYADSVQGRFTISRDNAKNTVFLQMNSLKSEDTAVYYCARLRRYYGLNLDPGSYDYWGQGTQVTVSS
notes: as for B1
Kd [1]: 74 nM
koff [1]: 0.0021 s⁻¹
kon [1]: 28000 M⁻¹ s⁻¹
Kd [2]: 2.7 nM
koff [2]: 0.00069 s⁻¹
kon [2]: 260000 M⁻¹ s⁻¹

B5: NbhmMMRm21.22 (VHH)
VHH: QVQLQESGGGLVQAGGSLRLSCAASGRTFSSAAMGWFRQAPGKEREPVALINLDDGETYYADIAKGRFTLSKDNAKNSVYLQMNSLKPEDTAVYYCAVRGRFDDNYEYWGQGTQVTVSS
notes: Produced from pMECS with C-terminal HA and 6xHis tag; also called NbhMMRm21.22
Kd [2]: 3.6 nM
koff [2]: 0.0012 s⁻¹
kon [2]: 340000 M⁻¹ s⁻¹

B6: NbhMMRm23.30 (VHH)
VHH: QVQLQESGGGLVQAGDSLSISCAASGDTFNHYSWGWFRQAPGKAREFVAAISWNGGSKYADSVKGRFAISRDIAKNTVSLQMNSLEPEDTAVYYCAADRRPYNDWWDDWSWWVYWGQGTQVTVSS
notes: as for B1
binding result [1]: no binding (tested: analyte 1 to 2000 nM)

B7: NbhMMRm5.38 (VHH)
VHH: QVQLQESGGGLVQAGGSLRLSCAASGFTDDDYDIGWFRQAPGKEREGVSCISSSDGSTYYADSVKGRFTISSDNAKNTVYLQMNSLKPEDTAVYYCAADFFRWDSGSYYVRGCRHATYDYWGQGTQVTVSS
notes: Produced from pMECS with C-terminal HA and 6xHis tag; also called NbhmMMRm5.38; Nb5.38
Kd [1]: 25 nM
koff [1]: 0.0033 s⁻¹
kon [1]: 130000 M⁻¹ s⁻¹
Kd [2]: 3.3 nM
koff [2]: 0.00066 s⁻¹
kon [2]: 200000 M⁻¹ s⁻¹

B8: NbhmMMRm6.71 (VHH)
VHH: QVQLQESGGGLVQAGGSLRLSCAASGGTFDDSVIGWFRQAPGKEREGVSCISSNDGTTHYASPVKGRFTISSDNAKNTVYLQMNSLKPEDTAVYYCAAETPSIGSPCTSASYDYWGQGTQVTVSS
notes: as for B1
Kd [2]: 5.6 nM
koff [2]: 0.0011 s⁻¹
kon [2]: 190000 M⁻¹ s⁻¹

B9: NbhmMMRm22.84 (VHH)
VHH: QVQLQESGGGLVQPGGSLRLSCAASGRTFSNYVNYAMGWFRQFPGKEREFVASISWSSVTTYYADSVKGRFTISRDNAKNTVYLQMNSLKPEDTAVYYCAAHLAQYSDYAYRDPHQFGAWGQGTQVTVSS
notes: as for B1
Kd [1]: 130 nM
koff [1]: 0.004 s⁻¹
kon [1]: 30000 M⁻¹ s⁻¹
Kd [2]: 38 nM
koff [2]: 0.0019 s⁻¹
kon [2]: 49000 M⁻¹ s⁻¹

B10: NbhmMMRm17.72 (VHH)
VHH: QVQLQESGGGLVQPGGSLRLSCAASGSIVSINAMGWYRQAPGKQRELVALVTGSGRTNLADSVKGRFTISRDNAKNTVYLQMNSLKPEDTAVYYCNVLVIGPLEGYDYWGQGTQVTVSS
notes: as for B1
Kd [2]: 19 nM
koff [2]: 0.0012 s⁻¹
kon [2]: 62000 M⁻¹ s⁻¹

B11: NbhMMRm3.1 (VHH)
VHH: QVQLQESGGGLVQPGGSLRLSCAASGFTLDYYAIGWFRQAPGKEREGISCISYKGGSTTYADSVKGRFTISKDNAKNTAYLQMNNLKPEDTGIYYCAAGFVCYNYDYWGPGTQVTVSS
notes: Produced from pMECS with C-terminal HA and 6xHis tag; also called NbhmMMRm3.1
Kd [1]: 19 nM
koff [1]: 0.004 s⁻¹
kon [1]: 210000 M⁻¹ s⁻¹
Kd [2]: 3.4 nM
koff [2]: 0.00074 s⁻¹
kon [2]: 220000 M⁻¹ s⁻¹

B12: NbhmMMRm3.49 (VHH)
VHH: QVQLQESGGGLVQPGGSLRLSCAASGFSLDYYAIGWFRQAPGKEREGISCISYKGGSTTYADSVKGRFTISKDNAKNTAYLQMNSLKPEDTGIYSCAAGFVCYNYDYWGQGTQVTVSS
notes: Produced from pMECS with C-terminal HA and 6xHis tag; also called NbhMMRm3.49
Kd [1]: 12 nM
koff [1]: 0.0036 s⁻¹
kon [1]: 290000 M⁻¹ s⁻¹
Kd [2]: 1.8 nM
koff [2]: 0.0008 s⁻¹
kon [2]: 440000 M⁻¹ s⁻¹
